From paper PMC8298602, “14-3-3-protein regulates Nedd4-2 by modulating interactions between HECT and WW domains” (Communications Biology, 2021)

T1: 14-3-3η (Homo sapiens, UniProt Q04917)
T1 sequence (Q04917 1-246): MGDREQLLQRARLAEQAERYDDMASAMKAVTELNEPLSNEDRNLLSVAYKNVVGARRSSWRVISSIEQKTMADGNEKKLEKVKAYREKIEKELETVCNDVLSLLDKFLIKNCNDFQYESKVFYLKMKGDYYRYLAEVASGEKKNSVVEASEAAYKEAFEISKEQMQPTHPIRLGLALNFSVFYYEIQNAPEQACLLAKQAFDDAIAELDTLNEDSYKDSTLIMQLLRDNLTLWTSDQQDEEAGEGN


What was measured:
14-3-3η [1] = molecular target: T1, 14-3-3η; assay: native TBE-PAGE complex formation with 14-3-3η; format: binding; conditions: 12% native TBE-PAGE, 240 pmol 14-3-3η and 120 pmol Nedd4-2 variant
Procedure: Based on our estimates, the KD value was lower than 50 nM, as further confirmed by global modeling. TEXT PRINTED IN THE PICTURE: (d) no label printed: KD < 50 nM
Fig. 3 Simultaneous phosphorylation of two 14-3-3 binding motifs pSer342 and pSer448 is required for tight complex formation between pNedd4-2^335–455 and 14-3-3η. a 12% Native TBE-PAGE showing the interaction between 14-3-3η (240 pmol) and Nedd^335–455 variants without (no pS) or with one, two or three phosphorylation sites (120 pmol); 14-3-3η protein alone was loaded on the penultimate lane. b–i Sedimentation velocity analytical ultracentrifugation analysis of the complexes between 14-3-3η and pNedd4-2^335–455 variants showing the sw isotherms of 14-3-3η and Nedd4-2 with all three phosphorylation sites pSer^342 + pThr^367 + pSer^448 (b), with no phosphorylation sites (c), with one phosphorylation site (pSer^342 (d), pThr^367 (e) and pSer^448 (f)), or with two phosphorylation sites (pSer^342 + pThr^367 (g), pSer^342 + pSer^448 (h) and pThr^367 + pSer^448 (i)). […] The c(s) distributions underlying the sw data points are shown in Supplementary Fig. S3.

14-3-3η [2] = molecular target: T1, 14-3-3η; assay: SV-AUC (sedimentation velocity analytical ultracentrifugation), sw isotherm binding analysis; conditions: 300 nM pNedd4-2^186–975 with 0.06−6 μM 14-3-3η, A + B ⇌ AB (Langmuir) model, one pNedd4-2 per 14-3-3η dimer, 50 mM Tris-HCl pH 8.0, 500 mM NaCl, 1 mM TCEP, 0.01% Tergitol NP-40, 20 °C, read-out: apparent KD
Procedure: Solution properties of Nedd4-2^186–975 and its interactions with 14-3-3 were characterized by sedimentation velocity analytical ultracentrifugation (SV AUC).
Sedimentation velocity (SV) experiments were performed using a ProteomLab^TM XL-I, Beckman Coulter analytical ultracentrifuge. The samples were dialyzed against a buffer containing 20 mM Tris-HCl (pH 7.5), 150 mM NaCl, and 1 mM TCEP before analysis. The samples with the longer construct of Nedd4-2^186–975 were dialyzed against a buffer containing 50 mM Tris-HCl (pH 8.0), 500 mM NaCl, 1 mM TCEP and 0.01% (v/v) Tergitol NP-40 (Sigma). […] The buffer density, viscosity, and partial specific volume of all proteins were estimated using the program […]. All sedimentation profiles were collected with absorbance optics at 280 nm. The sedimentation coefficients c(s) distributions were calculated from raw data using the SEDFIT software package. The calculated distributions were integrated to establish the weight-average sedimentation coefficients corrected to 20 °C and the density of water, sw(20,w). […] The resulting isotherms were fitted with a A + B ⇌ AB model, as implemented in the SEDPHAT software package with previously known sw values of each component. The parameters were verified, and the loading concentrations were corrected using global Lamm-equation modeling, also implemented in the SEDPHAT software[66]

[3] = SEC-SAXS structural parameters; format: physicochemical; conditions: for Rg (Guinier approximation): 20 mM Tris-HCl pH 7.5, 150 mM NaCl, 1 mM TCEP, 3% glycerol
Procedure: SAXS data were collected on the European Molecular Biology Laboratory (EMBL) P12 beamline, at the storage ring PETRA III (Deutsches Elektronen Synchrotron (DESY), Hamburg, Germany). The SEC-SAXS measurements were conducted in a buffer containing 20 mM Tris-HCl (pH 7.5), 150 mM NaCl, 1 mM TCEP, 3% (w/v) glycerol using Superdex 200 Increase 5/150 GL column (GE Healthcare) at the flow rate 0.5 ml.min^−1 at 293.15 K.
The loading concentrations of the samples were 2.2 mg.ml^−1 for Nedd4-2^186–975, 2 mg.ml^−1 for 14-3-3η and 8.9 mg.ml^−1 for the Nedd4-2^186–975:14-3-3η complex (1:2 molar stoichiometry). The injection volume of the samples was 52 μl. Elution profiles with the corresponding frames were processed using ATSAS 3.0.2 software CHROMIXS[71]. ATSAS software PRIMUS and GNOM were used to determine the excluded volume of the hydrated particle (Vp), the radius of gyration (Rg) and maximum particle dimension (Dmax)[72],[73]. The molecular mass (MW) was determined using a methods described by Rambo et al.[74]. Scattering profiles, P(r) functions, normalized Kratky plots and Guinier approximations were visualized using GraphPad Prism version 8.0.1 for Windows (GraphPad Software, La Jolla California USA, www.graphpad.com). The program DAMMIF was used to calculate the ab inicio molecular envelopes. For the complex, 10 surfaces were generated in slow mode and averaged using DAMAVER[76]. The averaged surfaces were used as the final filtered model of the complex, which was superimposed to the structural model using the SUPCOMB program (EMBL, Hamburg, Germany)[77].

[4] = SV-AUC continuous sedimentation coefficient distributions c(s); format: physicochemical
Procedure: Sedimentation velocity (SV) experiments were performed using a ProteomLab^TM XL-I, Beckman Coulter analytical ultracentrifuge. The samples were dialyzed against a buffer containing 20 mM Tris-HCl (pH 7.5), 150 mM NaCl, and 1 mM TCEP before analysis. The samples with the longer construct of Nedd4-2^186–975 were dialyzed against a buffer containing 50 mM Tris-HCl (pH 8.0), 500 mM NaCl, 1 mM TCEP and 0.01% (v/v) Tergitol NP-40 (Sigma). […] The buffer density, viscosity, and partial specific volume of all proteins were estimated using the program […]. All sedimentation profiles were collected with absorbance optics at 280 nm. The sedimentation coefficients c(s) distributions were calculated from raw data using the SEDFIT software package. The calculated distributions were integrated to establish the weight-average sedimentation coefficients corrected to 20 °C and the density of water, sw(20,w). The sw values were plotted as a function of Nedd4-2^355–455 or 14-3-3η concentration to construct sw isotherms. The resulting isotherms were fitted with a A + B ⇌ AB model, as implemented in the SEDPHAT software package with previously known sw values of each component. The parameters were verified, and the loading concentrations were corrected using global Lamm-equation modeling, also implemented in the SEDPHAT software[66]

[5] = tested on: all human 14-3-3 protein isoforms; assay: native TBE-PAGE isoform binding specificity; conditions: 12% TBE-PAGE, 128 pmol 14-3-3 and 64 pmol pNedd4-2^335–455
Procedure: In addition, we prepared pNedd4-2^335–455 to characterize 14-3-3 isoform binding specificity.
Supplementary Fig. S2. Characterization of the interaction between Nedd4-2 and 14-3-3 in solution. a Continuous sedimentation coefficient distributions (c(s)) of 10 μM pNedd4- […]
mixed at 1:2 (cyan) and 1:1 (green) molar ratios. The protein concentrations were 10 μM for 14335-455 335-455-3-3ε and 5 μM or 10 μM for pNedd4335-455 -2 . b Isoform binding specificity of pNedd4-2 .
Phosphorylated pNedd4-2 , 14-3-3 proteins and their complexes were separated by 12% TBE-PAGE to study the interaction of pNedd4-2335-455 with all seven human 14-3-3 isoforms (β, γ, ε, δ, ε, σ, and τ). The amounts of protein loaded on the native gel were 128 pmol of 14335-455 -3-3 and […]
(1 picture or pasted object on this page, not shown here)

[6] = frames from the right side of the elution peak
[7] = frames from the top of the elution peak

Molecule	complex formation on native TBE-PAGE (14-3-3η [1])	Kd (14-3-3η [2]) [nM]	Dmax [3, 6] [nm]	Rg (GNOM) [3, 6] [nm]	VP (Porod volume) [3, 6] [nm^3]	Rg (Guinier approximation) [3, 6] [nm]	Dmax [3, 7] [nm]	Rg (GNOM) [3, 7] [nm]	VP (Porod volume) [3, 7] [nm^3]	Rg (Guinier approximation) [3, 7] [nm]	maximum particle dimension Dmax ([3]; from P(r) functions) [Å]	f/f0 ([4]; SV-AUC c(s) analysis)	weight-averaged sedimentation coefficient sw(20,w), unit not given ([4]; corrected to 20.0 °C and density of water) [S]	complex formation on native TBE-PAGE, all isoforms [5]
Nedd4-2^186–975: N-terminally truncated human Nedd4-2, missing the C2 domain (protein, phosphoserine at 342, phosphothreonine at 367, phosphoserine at 448 (PKA in vitro, confirmed by LC-MS); left off: His6, C-terminal, kept, N-terminally truncated human Nedd4-2, missing the C2 domain) HQEELPPPPLPPGWEEKVDNLGRTYYVNHNNRTTQWHRPSLMDVSSESDNNIRQINQEAAHRRFRSRRHISEDLEPEPSEGGDVPEPWETISEEVNIAGDSLGLALPPPPASPGSRTSPQELSEELSRRLQITPDSNGEQFSSLIQREPSSRLRSCSVTDAVAEQGHLPPPSAPAGRARSSTVTGGEEPTPSVAYVHTTPGLPSGWEERKDAKGRTYYVNHNNRTTTWTRPIMQLAEDGASGSATNSNNHLIEPQIRRPRSLSSPTVTLSAPLEGAKDSPVRRAVKDTLSNPQSPQPSPYNSPKPQHKVTQSFLPPGWEMRIAPNGRPFFIDHNTKTTTWEDPRLKFPVHMRSKTSLNPNDLGPLPPGWEERIHLDGRTFYIDHNSKITQWEDPRLQNPAITGPAVPYSREFKQKYDYFRKKLKKPADIPNRFEMKLHRNNIFEESYRRIMSVKRPDVLKARLWIEFESEKGLDYGGVAREWFFLLSKEMFNPYYGLFEYSATDNYTLQINPNSGLCNEDHLSYFTFIGRVAGLAVFHGKLLDGFFIRPFYKMMLGKQITLNDMESVDSEYYNSLKWILENDPTELDLMFCIDEENFGQTYQVDLKPNGSEIMVTNENKREYIDLVIQWRFVNRVQKQMNAFLEGFTELLPIDLIKIFDENELELLMCGLGDVDVNDWRQHSIYKNGYCPNHPVIQWFWKAVLLMDAEKRIRLLQFVTGTSRVPMNGFAELYGSNGPQLFTIEQWGSPEKLPRAHTCFNRLDLPPYETFEDLREKLLMAVENAQGFEGVD	phosphorylation-dependent interaction	~50	16.9	4.54 ± 0.02	192	4.39 ± 0.02	18.3	4.92 ± 0.01	218	4.67 ± 0.01	169			
pNedd4-2^335–455: shorter Nedd4-2 variant missing both the C2 and the HECT domains, all three phosphorylation sites (protein, phosphoserine at 342, phosphothreonine at 367, phosphoserine at 448; left off: His6, N-terminal, cleaved | GB1 domain of protein G, N-terminal, cleaved, shorter Nedd4-2 variant missing both the C2 and the HECT domains, all three phosphorylation sites) SSRLRSCSVTDAVAEQGHLPPPSAPAGRARSSTVTGGEEPTPSVAYVHTTPGLPSGWEERKDAKGRTYYVNHNNRTTTWTRPIMQLAEDGASGSATNSNNHLIEPQIRRPRSLSSPTVTLS												1.5	1.4	forms stable complexes
